Assays:
Experiment in all cases: flow cytometry, transfected cells
human CD33 F44L = human CD33 F44L (human, UniProt P20138 18-364)
human CD33 D51K = human CD33 D51K (human, UniProt P20138 18-364)
human CD33 F44T = human CD33 F44T (human, UniProt P20138 18-364)
human CD33 I47S = human CD33 I47S (human, UniProt P20138 18-364)
human CD33 R122S = human CD33 R122S (human, UniProt P20138 18-364)
human CD33 I47G = human CD33 I47G (human, UniProt P20138 18-364)
human CD33 F44E = human CD33 F44E (human, UniProt P20138 18-364)
Chain of human CD33 F44E (P20138 18-364 F44E limits assumed): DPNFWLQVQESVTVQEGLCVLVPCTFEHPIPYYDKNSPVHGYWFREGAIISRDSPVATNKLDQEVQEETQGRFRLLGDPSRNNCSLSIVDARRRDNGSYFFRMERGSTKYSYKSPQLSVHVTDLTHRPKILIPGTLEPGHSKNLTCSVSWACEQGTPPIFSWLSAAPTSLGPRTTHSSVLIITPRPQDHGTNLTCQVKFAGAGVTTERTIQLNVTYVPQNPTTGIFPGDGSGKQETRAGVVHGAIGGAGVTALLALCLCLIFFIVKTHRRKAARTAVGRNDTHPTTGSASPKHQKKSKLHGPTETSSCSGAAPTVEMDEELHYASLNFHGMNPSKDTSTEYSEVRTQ

human CD33 I47Q = human CD33 I47Q (human, UniProt P20138 18-364)
Chain of human CD33 I47Q (P20138 18-364 I47Q limits assumed): as the sequence (P20138 18-364 F44E limits assumed) above, with E27F, I30Q counted along it

human CD33 Y49C = human CD33 Y49C (human, UniProt P20138 18-364)
Chain of human CD33 Y49C (P20138 18-364 Y49C limits assumed): as the sequence (P20138 18-364 F44E limits assumed) above, with E27F, Y32C counted along it

human CD33 F44D = human CD33 F44D (human, UniProt P20138 18-364)
Chain of human CD33 F44D (P20138 18-364 F44D limits assumed): as the sequence (P20138 18-364 F44E limits assumed) above, with E27D counted along it

human CD33 F44P = human CD33 F44P (human, UniProt P20138 18-364)
Chain of human CD33 F44P (P20138 18-364 F44P limits assumed): as the sequence (P20138 18-364 F44E limits assumed) above, with E27P counted along it

human CD33 R122I = human CD33 R122I (human, UniProt P20138 18-364)
Chain of human CD33 R122I (P20138 18-364 R122I limits assumed): as the sequence (P20138 18-364 F44E limits assumed) above, with E27F, R105I counted along it

human CD33 R122F = human CD33 R122F (human, UniProt P20138 18-364)
Chain of human CD33 R122F (P20138 18-364 R122F limits assumed): as the sequence (P20138 18-364 F44E limits assumed) above, with E27F, R105F counted along it

human CD33 I47E = human CD33 I47E (human, UniProt P20138 18-364)
Chain of human CD33 I47E (P20138 18-364 I47E limits assumed): as the sequence (P20138 18-364 F44E limits assumed) above, with E27F, I30E counted along it

human CD33 F44H = human CD33 F44H (human, UniProt P20138 18-364)
Chain of human CD33 F44H (P20138 18-364 F44H limits assumed): as the sequence (P20138 18-364 F44E limits assumed) above, with E27H counted along it

human CD33 R122E = human CD33 R122E (human, UniProt P20138 18-364)
Chain of human CD33 R122E (P20138 18-364 R122E limits assumed): as the sequence (P20138 18-364 F44E limits assumed) above, with E27F, R105E counted along it

human CD33 I47W = human CD33 I47W (human, UniProt P20138 18-364)
Chain of human CD33 I47W (P20138 18-364 I47W limits assumed): as the sequence (P20138 18-364 F44E limits assumed) above, with E27F, I30W counted along it

human CD33 I47R = human CD33 I47R (human, UniProt P20138 18-364)
Chain of human CD33 I47R (P20138 18-364 I47R limits assumed): as the sequence (P20138 18-364 F44E limits assumed) above, with E27F, I30R counted along it

human CD33 I47Y = human CD33 I47Y (human, UniProt P20138 18-364)
Chain of human CD33 I47Y (P20138 18-364 I47Y limits assumed): as the sequence (P20138 18-364 F44E limits assumed) above, with E27F, I30Y counted along it

human CD33 I47P = human CD33 I47P (human, UniProt P20138 18-364)
Chain of human CD33 I47P (P20138 18-364 I47P limits assumed): as the sequence (P20138 18-364 F44E limits assumed) above, with E27F, I30P counted along it

human CD33 F44Q = human CD33 F44Q (human, UniProt P20138 18-364)
Chain of human CD33 F44Q (P20138 18-364 F44Q limits assumed): as the sequence (P20138 18-364 F44E limits assumed) above, with E27Q counted along it

human CD33 F44V = human CD33 F44V (human, UniProt P20138 18-364)
Chain of human CD33 F44V (P20138 18-364 F44V limits assumed): as the sequence (P20138 18-364 F44E limits assumed) above, with E27V counted along it

human CD33 F44S = human CD33 F44S (human, UniProt P20138 18-364)
Chain of human CD33 F44S (P20138 18-364 F44S limits assumed): as the sequence (P20138 18-364 F44E limits assumed) above, with E27S counted along it

human CD33 Y49G = human CD33 Y49G (human, UniProt P20138 18-364)
Chain of human CD33 Y49G (P20138 18-364 Y49G limits assumed): as the sequence (P20138 18-364 F44E limits assumed) above, with E27F, Y32G counted along it

human CD33 K52D = human CD33 K52D (human, UniProt P20138 18-364)
Chain of human CD33 K52D (P20138 18-364 K52D limits assumed): as the sequence (P20138 18-364 F44E limits assumed) above, with E27F, K35D counted along it

human CD33 I47L = human CD33 I47L (human, UniProt P20138 18-364)
Chain of human CD33 I47L (P20138 18-364 I47L limits assumed): as the sequence (P20138 18-364 F44E limits assumed) above, with E27F, I30L counted along it

human CD33 Y49P = human CD33 Y49P (human, UniProt P20138 18-364)
Chain of human CD33 Y49P (P20138 18-364 Y49P limits assumed): as the sequence (P20138 18-364 F44E limits assumed) above, with E27F, Y32P counted along it

human CD33 Y49D = human CD33 Y49D (human, UniProt P20138 18-364)
Chain of human CD33 Y49D (P20138 18-364 Y49D limits assumed): as the sequence (P20138 18-364 F44E limits assumed) above, with E27F, Y32D counted along it

human CD33 I47F = human CD33 I47F (human, UniProt P20138 18-364)
Chain of human CD33 I47F (P20138 18-364 I47F limits assumed): as the sequence (P20138 18-364 F44E limits assumed) above, with E27F, I30F counted along it

human CD33 R122T = human CD33 R122T (human, UniProt P20138 18-364)
Chain of human CD33 R122T (P20138 18-364 R122T limits assumed): as the sequence (P20138 18-364 F44E limits assumed) above, with E27F, R105T counted along it

human CD33 I47N = human CD33 I47N (human, UniProt P20138 18-364)
Chain of human CD33 I47N (P20138 18-364 I47N limits assumed): as the sequence (P20138 18-364 F44E limits assumed) above, with E27F, I30N counted along it

human CD33 I47T = human CD33 I47T (human, UniProt P20138 18-364)
Chain of human CD33 I47T (P20138 18-364 I47T limits assumed): as the sequence (P20138 18-364 F44E limits assumed) above, with E27F, I30T counted along it

human CD33 F44I = human CD33 F44I (human, UniProt P20138 18-364)
Chain of human CD33 F44I (P20138 18-364 F44I limits assumed): as the sequence (P20138 18-364 F44E limits assumed) above, with E27I counted along it

Chain of human CD33 F44L (P20138 18-364 F44L limits assumed): as the sequence (P20138 18-364 F44E limits assumed) above, with E27L counted along it
Chain of human CD33 I47G (P20138 18-364 I47G limits assumed): as the sequence (P20138 18-364 F44E limits assumed) above, with E27F, I30G counted along it
Chain of human CD33 D51K (P20138 18-364 D51K limits assumed): as the sequence (P20138 18-364 F44E limits assumed) above, with E27F, D34K counted along it
Chain of human CD33 F44T (P20138 18-364 F44T limits assumed): as the sequence (P20138 18-364 F44E limits assumed) above, with E27T counted along it
Chain of human CD33 R122S (P20138 18-364 R122S limits assumed): as the sequence (P20138 18-364 F44E limits assumed) above, with E27F, R105S counted along it
Chain of human CD33 I47S (P20138 18-364 I47S limits assumed): as the sequence (P20138 18-364 F44E limits assumed) above, with E27F, I30S counted along it

binding result (human CD33 F44L): no binding (tested: below 20%)
binding result (human CD33 D51K): no binding (tested: below 20%)
binding result (human CD33 F44T): no binding (tested: below 20%)
binding result (human CD33 I47S): no binding (tested: below 20%)
binding result (human CD33 R122S): no binding (tested: below 20%)
binding result (human CD33 I47G): no binding (tested: below 20%)
binding result (human CD33 F44E): no binding (tested: below 20%)
binding result (human CD33 I47Q): no binding (tested: below 20%)
binding result (human CD33 Y49C): no binding (tested: below 20%)
binding result (human CD33 F44D): no binding (tested: below 20%)
binding result (human CD33 F44P): no binding (tested: below 20%)
binding result (human CD33 R122I): no binding (tested: below 20%)
binding result (human CD33 R122F): no binding (tested: below 20%)
binding result (human CD33 I47E): no binding (tested: below 20%)
binding result (human CD33 F44H): no binding (tested: below 20%)
binding result (human CD33 R122E): no binding (tested: below 20%)
binding result (human CD33 I47W): no binding (tested: below 20%)
binding result (human CD33 I47R): no binding (tested: below 20%)
binding result (human CD33 I47Y): no binding (tested: below 20%)
binding result (human CD33 I47P): no binding (tested: below 20%)
binding result (human CD33 F44Q): no binding (tested: below 20%)
binding result (human CD33 F44V): no binding (tested: below 20%)
binding result (human CD33 F44S): no binding (tested: below 20%)
binding result (human CD33 Y49G): no binding (tested: below 20%)
binding result (human CD33 K52D): no binding (tested: below 20%)
binding result (human CD33 I47L): no binding (tested: below 20%)
binding result (human CD33 Y49P): no binding (tested: below 20%)
binding result (human CD33 Y49D): no binding (tested: below 20%)
binding result (human CD33 I47F): no binding (tested: below 20%)
binding result (human CD33 R122T): no binding (tested: below 20%)
binding result (human CD33 I47N): no binding (tested: below 20%)
binding result (human CD33 I47T): no binding (tested: below 20%)
binding result (human CD33 F44I): no binding (tested: below 20%)
B1: Refmab #2 (antibody, human IgG1, V domains shown)
VH: QVQLVQSGAEVKKPGSSVKVSCKASGGTFSDYAISWVRQAPGQGLEWMGRIIPILGVADYAQKFQGRVTITADKSTRTAYMELSSLRSEDTAVYYCARNWADAFDIWGQGTMVTVSS
VL: DIQLTQSPSSLSASVGDRVTITCRASQGISSVLAWYQQKPGKAPKLLIYDASSLESGVPSRFSGSGSGTDFTLTISSLQPEDFATYYCQQFDSSITFGQGTKLEIK
